Experiments:
[1] = system: NK-92 cells; experiment: Flow cytometry of mucin levels on NK-92 cells after StcE incubation; assay type: cell-based; details: 100 nM recombinant enzyme
Protocol: FIG. 11. StcE mucinase effectively remove cell-surface mucin on 1E7 clone and NK cell. (A) Representative confocal images of Muc1-GFP expressing 1E7 cells with and without treatment with 100 nM StcE, StcE ΔX409, or StcE-EE Zip; Alexa Fluor 647 conjugated to GFP nanobody is used to probe cell-surface Muc1-GFP constructs. (Scale bar, 10 μm). (B) Quantification of mean fluorescence intensity of Muc1-GFP and cell-surface Muc1-GFP probed with GFP nanobody in 1E7 cells treated with the indicated concentration of StcE mucinase; results are shown for induction of Muc1-GFP at 100 ng/ml and 1000 ng/ml doxycycline. (C) Cytotoxicity of NK-92 cells against 1E7 cells treated with control buffer, 100 nM StcE mucinase, or 5,000 U/mL PNGase F for 1 hour; Muc1-GFP induction is at the indicated doxycycline concentration (1,100, and 1,000 ng/ml); NK cell to target cell ratio is 5:1. (D) Flow cytometry analysis of mucin levels on NK-92 cells following incubation with control buffer or 100 nM recombinant StcE or StcE ΔX409; StcE surface level after incubation probed with anti His-tag antibody and cell-surface mucin level probed with catalytically dead StcE E447D conjugated to Cy5. Statistical significance is given by ns—not significant, *P≤0.05, **P≤0.01, ***P≤0.001, ****P≤0.0001. Results are a representative dataset from 3 independent replicates. […]

[2] = system: 1E7 cells; experiment: NK cell cytotoxicity assay against 1E7 cells; assay type: cell-based; details: 1E7 target cells; NK cell to target cell ratio 5:1 or 10:1
Protocol: Target MCF10A cells were fluorescently labeled by incubation with 1 M CellTracker Green CMFDA Dye (Invitrogen) in MCF10A growth media for 10 minutes. 3×10^4 labeled target cells were suspended with varying ratios of NK-92 effector cells in 200 μL of growth media of target cell line in absent of IL-2 and cocultured in an ultra-low attachment U-bottom 96-well plate (Corning) for 4 hours at 37° C. in 5% C02. For all StcE-treated NK cell experiment, unless otherwise indicated, NK cells were incubated with 100 nM StcE at 37° C. for 1 hour. Cells were thoroughly washed to remove StcE and coculture with target cells. After 4 hours, propidium iodide (PI; 20 μg/mL, Sigma) was added to each well for 10 minutes and washed with 0.5% BSA PBS. […] NK cell cytotoxicity was evaluated by flow cytometry as previously described^16,81. At least 1×10^4 target cells were analyzed after electronic gating on CellTracker Green. Percent cytotoxicity was calculated as 100×(experimental % dead−spontaneous % dead)/(100−spontaneous % dead), where experimental % dead was the percentage of PI positive target cells in NK cocultures and spontaneous % dead was the percentage of PI positive control target cells cultured in the absence of effector cells.

B1: StcE-ΔX409: StcE with a deleted C-terminal X409 lectin domain; NK cells treated with it: StcE-ΔX409 NK (protein)
chain: ADNNSAIYFNTSQPINDLQGSLAAEVKFAQSQILPAHPKEGDSQPHLTSLRKSLLLVRPVKADDKTPVQVEARDDNNKILGTLTLYPPSSLPDTIYHLDGVPEGGIDFTPHNGTKKIINTVAEVNKLSDASGSSIHSHLTNNALVEIHTANGRWVRDIYLPQGPDLEGKMVRFVSSAGYSSTVFYGDRKVTLSVGNTLLFKYVNGQWFRSGELENNRITYAQHIWSAELPAHWIVPGLNLVIKQGNLSGRLNDIKIGAPGELLLHTIDIGMLTTPRDRFDFAKDKEAHREYFQTIPVSRMIVNNYAPLHLKEVMLPTGELLTDMDPGNGGWHSGTMRQRIGKELVSHGIDNANYGLNSTAGLGENSHPYVVAQLAAHNSRGNYANGIQVHGGSGGGGIVTLDSTLGNEFSHEVGHNYGLGHYVDGFKGSVHRSAENNNSTWGWDGDKKRFIPNFYPSQTNEKSCLNNQCQEPFDGHKFGFDAMAGGSPFSAANRFTMYTPNSSAIIQRFFENKAVFDSRSSTGFSKWNADTQEMEPYEHTIDRAEQITASVNELSESKMAELMAEYAVVKVHMWNGNWTRNIYIPTASADNRGSILTINHEAGYNSYLFINGDEKVVSQGYKKSFVSDGQFWKERDVVDTREARKPEQFGVPVTTLVGYYDPEGTLSSYIYPAMYGAYGFTYSDDSQNLSDNDCQLQVDTKEGQLRFRLANHRANNTVMNKFHINVPTESQPTQATLVCNNKILDTKSLTPAPEGLTYTVN
trimming of mucin-domain containing proteins on NK-92 cells [1]: trimmed similarly
cytotoxicity of enzyme-equipped or enzyme-treated NK cells compared to unmodified NK-92 cells [2]: not significantly enhanced

— US20250152627A1, “COMPOSITIONS AND METHODS FOR ENHANCING IMMUNE CELL FUNCTION USING MODIFIED CELLS WITH GLYCOCALYX EDITING ENZYMES” (Cornell University, priority 2021, published 2025)
